The term Kd denotes the concentration at which binding is half-saturated.

The assay deals with LcrV (V antigen) of Yersinia pestis (Yersinia pestis, UniProt P0C7U7 1-326). The assay is described as follows: SPR; Biacore 3000; […]; HBS-P pH 7.4; […]. The note with it: both partners purified. (In general: SPR reads the build-up and loss of mass on a sensor chip optically.)
Sequence of LcrV (V antigen) of Yersinia pestis (P0C7U7 whole entry): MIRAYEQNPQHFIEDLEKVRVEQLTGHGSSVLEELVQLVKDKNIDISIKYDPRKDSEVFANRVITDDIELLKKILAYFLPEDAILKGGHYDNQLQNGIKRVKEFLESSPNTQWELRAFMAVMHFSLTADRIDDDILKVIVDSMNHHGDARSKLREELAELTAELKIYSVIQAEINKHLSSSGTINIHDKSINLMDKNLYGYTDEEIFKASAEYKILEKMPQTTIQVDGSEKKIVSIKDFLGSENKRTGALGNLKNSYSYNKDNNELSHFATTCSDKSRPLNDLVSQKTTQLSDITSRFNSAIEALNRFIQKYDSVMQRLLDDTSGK

B1: wild-type human interferon-gamma (ligand, UniProt P01579 24-166, looked up)
chain: QDPYVKEAENLKKYFNAGHSDVADNGTLFLGILKNWKEESDRKIMQSQIVSFYFKLFKNFKDDQSIQKSVETIKEDMNVKFFNSNKKKRDDFEKLTNYSVTDLNVQRKAIHELIQVMAELSPAAKTGKRKRSQMLFRGRRASQ
notes: also called IFNγ; IFNγwt
Turning to B1, the Kd was determined as 32 nM.

The values are drawn from paper PMC3001473 (PLoS ONE, 2010).
